The target in experiment [1] is T1, soluble DRB1*0401 molecules (DR4) (Homo sapiens, UniProt P01903+P01911, A100K/A169T/F76Y/I96L/K127E/L162R/M171V/N62H/P40V/Q125Y/R42H/S133A/S149N/S66Y/V115G/V209L/W38E).
T1 construct: Soluble HLA class I A*0201 and HLA class II DRA1*0101/DRB1*0101/Ii, DRA1*0101/DRB1*0401/Ii and DRA1*0101/DRB1*0404/Ii molecules were expressed in SC-2 cells; made in house; host or cells: SC-2 cells
Format: binding. Details: key to Binding to DRB1 *0401: −: no binding/T cell response; +/−: weak binding/T cell response; +: intermediate binding/T cell response; ++: strong binding/T cell response. The note with it: soluble DRB1*0401 molecules.

Experiment [2] concerns PBMC from CMV seropositive donors. Format: cell-based, human.
Experiment [3] relates to HLA-DRB1*0401-transgenic mice splenocytes. Format: in vivo, mouse. Details: key to DRB1*0401 mice total SC (T cell response) / DRB1*0401 mice CD4+ (T cell response): −: no binding/T cell response; +/−: weak binding/T cell response; +: intermediate binding/T cell response; ++: strong binding/T cell response. The note with it: IFN-gamma ELISpot, ex vivo re-stimulation; for DRB1*0401 mice CD4+ (T cell response): enriched CD4+ fraction of splenocytes of HLA-DR4 transgenic mice vaccinated with the longer peptide; for DRB1*0401 mice total SC (T cell response): total splenocytes of HLA-DR4 transgenic mice vaccinated with the longer peptide.

The target in experiment [4] is T1, soluble DRB1*0401 molecules (DR4). It is filed as binding. Details: key: −: no binding; +/−: weak binding; +: intermediate binding; ++: strong binding. The note with it: individual pp65 15mer, SDS-stability assay.
For experiment [5], the target named is T2, soluble DRB1*0404 molecules (Homo sapiens, UniProt P01903+P01911, A100R/A169T/F76Y/I96L/K127E/L162R/M171V/N62H/P40V/Q125Y/R42H/S133A/S149N/S66Y/V209L/W38E).
T2 construct: Soluble HLA class I A*0201 and HLA class II DRA1*0101/DRB1*0101/Ii, DRA1*0101/DRB1*0401/Ii and DRA1*0101/DRB1*0404/Ii molecules were expressed in SC-2 cells; made in house; host or cells: SC-2 cells
Kind of experiment: Peptide binding assay, SDS-stability assay. The arrangement: key: +++: high binding affinity; ++: moderate binding affinity; +: low binding affinity; −: no binding. The note with it: individual pp65 15mer.

In experiment [6] the target is T3, soluble DRB1*0101 molecules (Homo sapiens, UniProt P01903+P01911, A100R/D57E/F55L/F60I/F76Y/I96L/L162R/M171V/P40L/Q125E/R42F/V115G/Y59C).
T3 construct: Soluble HLA class I A*0201 and HLA class II DRA1*0101/DRB1*0101/Ii, DRA1*0101/DRB1*0401/Ii and DRA1*0101/DRB1*0404/Ii molecules were expressed in SC-2 cells; made in house; host or cells: SC-2 cells
The experiment is described as follows: Peptide binding assay, SDS-stability assay. Details: key: +++: high binding affinity; ++: moderate binding affinity; +: low binding affinity; −: no binding. The note with it: individual pp65 15mer.

The target in experiment [7] is T2, soluble DRB1*0404 molecules. The experiment is described as follows: Peptide binding assay, SDS-stability assay. Details: key: −: no binding/T cell response; +/−: weak binding/T cell response; +: intermediate binding/T cell response; ++: strong binding/T cell response. The note with it: soluble DRB1*0404 molecules.
For experiment [8], the target named is T3, soluble DRB1*0101 molecules. The experiment is described as follows: Peptide binding assay, SDS-stability assay. The note with it: soluble DRB1*0101 molecules. Details: key: −: no binding/T cell response; +/−: weak binding/T cell response; +: intermediate binding/T cell response; ++: strong binding/T cell response.
Experiment [9] has the same target. The experiment is described as follows: Peptide binding assay, SDS-stability assay. The arrangement: key: −: no binding; +/−: weak binding; +: intermediate binding; ++: strong binding. The note with it: individual pp65 15mer.
Experiment [10] has as its target T1, soluble DRB1*0401 molecules (DR4). It is filed as binding. The arrangement: key: +++: high binding affinity; ++: moderate binding affinity; +: low binding affinity; −: no binding.
For experiment [11], the system named is DRB1*0401, DRB1*0101, DRB1*0404, DRB1*0701 and DRB1*1101. Kind of experiment: Binding to soluble HLA molecules of different allels (promiscuity). The arrangement: species or system human. Here is the method:
In peptide binding reactions HLA molecules were used in a concentration of 0.5 μM, and each single peptide was added in 10-fold molar excess (5 μM) if not mentioned differently. […] The reaction was performed in PBS buffer (pH 7.4) at room temperature for 48 hours in the presence of a protease inhibitor cocktail (Roche) and 0.1% octyl-b-D-glucopyranoside (Sigma).
Peptide binding was evaluated in an SDS-stability assay (Gorga et al., 1987): trimeric HLA class II ab-peptide complexes are resistant to SDS and consequently appear as ˜60 kDa band in SDS-PAGE Western blot analysis. Individual HLA class II α and β chains not stabilized by a peptide binding with intermediate to high affinity migrate as ˜35 kDa and ˜30 kDa bands, respectively.
The binding affinities to DRB1*0701 and DRB1*1101 were tested by a peptide-competition assay (Reay et al., 1992). Briefly, binding of the biotinylated CLIP peptide (reference peptide) has been used for monitoring of HLA:peptide complex formation. […] In the case of lower affinity peptides they should be added in excess to the reference peptide to compete for occupancy of HLA binding grove. […] Alternatively, comparing of the amount of reference peptide bound to HLA molecules in the presence or absence of competitor peptide one can determine the binding activity of the peptide of interest.
In the present peptide-competition assay conditions of peptide binding were similar to described above. Soluble HLA molecules were used in the concentration of 0.5 μM and biotinylated CLIP was added to all samples in the final concentration of 2 μM. Competitor peptides were added in three different concentrations: 0.25, 5 and 100 μM. Binding reaction was performed in PBS buffer (pH 7.4) for 18 hours at 37° C. […] Briefly, MaxiSorb 96-well plates (Nunc, Denmark) were coated with mouse anti-αβ antibody L243 (purified from ATCC HB-55) by overnight incubation with 50 μl of 10 μg/ml dilution in PBS at 4° C. Non-specific binding to the plastic was blocked by incubation with T-PBS containing 3% of BSA for 2 hours at 37° C. and binding reactions were then “captured” for 2 hours at room temperature. […] The optical density at 405 nm was measured on a microplate reader SUNRISE (Tecan).
Some of the identified DRB1*0401 binding peptides, as well as others chosen by prediction algorithms were also tested for binding to soluble HLA molecules of different allels: DRB1*0101, DRB1*0404, DRB1*0701 and DRB1*1101 (Table 3).

The target in experiment [12] is T2, soluble DRB1*0404 molecules. Kind of experiment: Peptide binding assay, SDS-stability assay. The arrangement: key: −: no binding; +/−: weak binding; +: intermediate binding; ++: strong binding. The note with it: individual pp65 15mer.
Experiment [13] shares this target. The experiment is described as follows: Peptide binding assay, SDS-stability assay.
Experiment [14] has as its system PBMC (CD4 and CD8 positive T-cell compartments). The experiment is described as follows: Intracellular IFN-γ staining combined with surface staining for CD4, CD8, CD69 (FACS). It is filed as cell-based, human. The note with it: donor 10788, peptide 80 μg/ml (FIG. 11). As to the method:
To distinguish between CD8-positive CTL mediated or CD4-positive HTL mediated reactivity, intracellular cytokine staining combined with staining for surface markers was performed: after thawing, PBMNC were kept overnight (37° C., 5% CO2) in RPMI1640 with 10% human serum type AB (BioWhittaker). Next day aliquots of 2 million PBMNC were incubated with peptide (80 μg/ml) or Concanavalin A (SIGMA). After 1 h, 10 μg/ml brefeldin A (SIGMA) were added and incubation was continued for 5 hours. Surface staining for CD4 (phycoerythrin), CD8 (cychrome), CD69 (allophycocyanine) was done with antibodies labelled as indicated (Pharmingen, San Diego, Calif., USA). After fixation with 1% para-formaldehyde in PBS, cells were permeabilized by incubating for 15 min in 0.5% BSA/0.1% Na-azide/0.1% saponin in PBS. Intracellular cytokines were stained with anti-IFN-γ (FITC) antibody 4S.B3 (Pharmingen). Samples (100,000 events in the lymphocyte gate) were read on a FACScalibur (Becton Dickinson).
FIG. 11: Confirmation of simultaneous CD4+ and CD8+ T-cell responses against CMVpp65 15mers 469, 470 by intracellular IFN-γ staining. PBMC from 2 donors (10687, 10788) were stimulated with either ConA as positive control (1st column), 15mers containing both putative class I and class II epitopes (columns 2 and 3) or medium as negative control (right column). Cells were stained for intracellular IFN-γ (x-axis) or surface the T-cell differentiation markers CD4 or CD8 (y-axis). Percentage in upper-right quadrant is indicated, numbers significant over background are shown boldface.

[15] abbreviates: individual pp65 15mer, SDS-stability assay.

“Also recorded” adds a separate entry of the source. Where two headings read alike, the source gives them in different places.

With LVSQYTPDSTPCHRG [Peptide 57], the “Binding to DRB1 *0401” value in experiment [1] is on record as “++”. Further, in [2], the “Induction of IFN-gamma secretion in T cells / PBMC from CMV seropositive donors” value was “induce INF-gamma production”. Moreover, the “T-cell responses, IFN-γ ELIspot” value in experiment [2] (donor 10788 (FIG. 10)) is reported as “strong T-cell responses”. In addition, the “DRB1*0401 mice CD4+ (T cell response)” value in experiment [3] is “+”. In experiment [3], the “DRB1*0401 mice total SC (T cell response)” value is reported as “++”. The “Binding to DRB1*0401” value in experiment [4] was “++”. Further, the “Binding to DRB1*0404” value in experiment [5] and in experiment [7] was “−” throughout. Further, the “Binding to DRB1*0101” value in experiment [6] and in experiment [8] was “−” in each case.
Consider WKEPDVYYTSAFVFP [Peptide 175], for which the “Binding to DRB1 *0401” value in experiment [1] is given as “−”. In experiment [3], the “DRB1*0401 mice CD4+ (T cell response)” value is reported as “+” and the “DRB1*0401 mice total SC (T cell response)” value is “+”. Besides, in [9], the “Binding to DRB1*0101” value is listed as “+”. For the same sequence, the “Binding to DRB1*0401” value in experiment [10] (setting [15]) was “−”.
Regarding LVPMVATVQGQNLKY [Peptide 496], in experiment [11], the “Affinity for several HLA molecules (promiscuity)” value was “affinity for at least two HLA molecules”. In addition, the “Binding to DRB1*0404” value in experiment [12] is “+”. Further, in [9], the “Binding to DRB1*0101” value is listed as “+”. In addition, in [10] (setting [15]), the “Binding to DRB1*0401” value is “−”.
As to MSIYVYALPLKMLNI [Peptide 109], in experiment [9], the “Binding to DRB1*0101” value is reported as “+”. Further, the “Binding to DRB1*0401” value in [10] is listed as “−”.
With GGAIAGASTSAGRKR [Peptide 423], the “Induction of IFN-gamma secretion in T cells / PBMC from CMV seropositive donors” value in experiment [2] is on record as “can induce functional, IFN-gamma secreting T cells in humans”. The “Binding to DRB1*0401” value in experiment [10] (setting [15]) was “−”. The “Binding to DRB1*0404” value in experiment [5] was “−”.
Regarding DEDSDNEIHNPAVFT [Peptide 469], the “Binding to DRB1*0404 (in words)” value in [13] is “found to bind to DRB1*0404; also recorded: weakly binding to DRB1*0404”. In addition, in [2], the “Induction of IFN-gamma secretion in T cells / PBMC from CMV seropositive donors” value is listed as “induce IFN-gamma secretion; also recorded: can induce functional, IFN-gamma secreting T cells in humans; also recorded: induce INF-gamma production”. The “Intracellular IFN-γ in CD4 and CD8 positive T-cell compartments” value in experiment [14] is “significant IFN-γ secretion in both the CD8 and CD4 positive T-cell compartments”. Further, the “Binding to DRB1*0404” value in experiment [12] was “+/−”. Moreover, the “Binding to DRB1*0401” value in experiment [10] (setting [15]) is “−”.

Values taken from patent US20050221381A1, “Method for isolating ligands” (priority 2002, published 2005).
